How the values were obtained:
[1] = target: human MUC5AC (native mucin) (human) (UniProt P98088); experiment: ELISA on target mucin antigen
[2] = target: human MUC5AC (native mucin) (human) (UniProt P98088); experiment: elution analysis of 111In-IMP-288/TF10 with excess mucin
[3] = target: human MUC5AC (native mucin) (human) (UniProt P98088); experiment: binding of radioiodinated TF10 to MUC5AC (not shown)
[4] = target: IMP-288 di-HSG hapten-peptide; experiment: elution analysis of radiolabeled peptide with TF10 (not shown)
[5] = target: human MUC5AC (native mucin) (human) (UniProt P98088); experiment: sandwich EIA: hPAM4 capture of antigen from CPM1, murine MAb probe at 10 µg/mL
[6] = target: human MUC5AC (native mucin) (human) (UniProt P98088); experiment: inhibition EIA on CPM1-coated plates; competitor hPAM4 at […]

PAM4-F(ab′)2
EC50 [1]: 1.83 nM

TF10 bispecific ([hPAM4]2 x h679) DNL construct (bispecific antibody)
percent of TF10-bound 111In-IMP-288 eluting at higher molecular weight with excess mucin [2]: 92%
immunoreactive fraction [3]: 87%
percent of 111In-IMP-288 bound [4]: 90%

45M1 anti-MUC5AC mouse monoclonal antibody
Kd [5]: 14.3 µg/mL
ICmax (maximal inhibition) [6]: 25.5%
